Source: patent US12679878B2, “CRF2 receptor agonists and their use in therapy” (SANOFI, priority 2020, dated 2026)
Starred links: 1 amine or outer side, 2 acyl side, 3 side chain; linkers in the order of their positions; H or OH if unused. Non-standard residues stand in square brackets, D forms with d. Groups on a side chain read outwards from the residue. No end group written: not given here. *: point of attachment. C16 diacid = O=C(O)CCCCCCCCCCCCCCC(=O)*; γGlu = O=C(O)[C@H](CCC(=O)[*:2])N[*:1]; Palmitoyl = CCCCCCCCCCCCCCCC(=O)*; Aib = CC(C)(N)C(=O)O

T1: CRF1R receptor (anti-target) (UniProt P34998 24-415, limits assumed)
T1 sequence (looked up): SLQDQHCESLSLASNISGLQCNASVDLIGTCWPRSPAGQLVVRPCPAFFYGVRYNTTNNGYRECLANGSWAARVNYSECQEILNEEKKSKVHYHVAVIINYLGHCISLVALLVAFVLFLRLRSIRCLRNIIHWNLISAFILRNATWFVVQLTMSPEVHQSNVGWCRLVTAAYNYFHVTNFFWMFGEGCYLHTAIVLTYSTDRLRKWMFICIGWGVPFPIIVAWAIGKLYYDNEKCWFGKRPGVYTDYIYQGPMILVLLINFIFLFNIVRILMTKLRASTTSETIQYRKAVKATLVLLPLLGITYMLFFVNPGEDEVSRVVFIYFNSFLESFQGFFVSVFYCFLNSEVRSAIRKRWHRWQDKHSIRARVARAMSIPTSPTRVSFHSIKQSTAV


Experiments:
Test in all cases: cell-based or functional assay
[1] = molecular target: human corticotropin-releasing factor 2α (CRF2α receptor) (human), Q13324
[2] = molecular target: human corticotropin-releasing factor 2α receptor (CRF2α receptor) (human), Q13324
[3] = molecular target: T1, CRF1R receptor (anti-target)

human corticotropin-releasing factor 2α receptor (CRF2α receptor) (human), Q13324, sequence (Q13324 20-411): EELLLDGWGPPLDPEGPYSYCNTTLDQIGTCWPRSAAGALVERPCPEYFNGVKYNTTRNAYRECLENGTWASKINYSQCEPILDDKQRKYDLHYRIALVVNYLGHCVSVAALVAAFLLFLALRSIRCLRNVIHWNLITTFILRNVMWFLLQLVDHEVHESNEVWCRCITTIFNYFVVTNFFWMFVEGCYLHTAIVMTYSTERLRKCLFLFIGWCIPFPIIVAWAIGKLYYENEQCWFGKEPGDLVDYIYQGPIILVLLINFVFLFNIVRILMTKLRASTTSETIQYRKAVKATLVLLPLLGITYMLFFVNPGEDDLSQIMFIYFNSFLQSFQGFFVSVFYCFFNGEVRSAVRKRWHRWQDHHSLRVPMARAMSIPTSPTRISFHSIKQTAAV
human corticotropin-releasing factor 2α (CRF2α receptor) (human), Q13324, sequence (Q13324 20-411): as above

| EC50 [nM], 0% HSA (cAMP, HTRF) [1] [nM] | CRF2 EC50 (cAMP, HTRF) [2] [nM] | CRF1/CRF2 ratio (of EC50) [3] | CRF1 EC50 (cAMP, HTRF) [3] [nM] | Binder |
| --- | --- | --- | --- | --- |
| 1.23 | 1.23 | 1 | 0.9 | IVLSLD[dV]PIKLK([γGlu-Palmitoyl])QILLKQERQKKQREQAEKNKQILEQV-NH2 (N-terminus assumed; SMILES CCCCCCCCCCCCCCCC(=O)N[C@@H](CCC(=O)NCCCC[C@H](NC(=O)[C@H](CC(C)C)NC(=O)[C@H](CCCCN)NC(=O)[C@@H](NC(=O)[C@@H]1CCCN1C(=O)[C@H](NC(=O)[C@H](CC(=O)O)NC(=O)[C@H](CC(C)C)NC(=O)[C@H](CO)NC(=O)[C@H](CC(C)C)NC(=O)[C@@H](NC(=O)[C@@H](N)[C@@H](C)CC)C(C)C)C(C)C)[C@@H](C)CC)C(=O)N[C@@H](CCC(N)=O)C(=O)N[C@H](C(=O)N[C@@H](CC(C)C)C(=O)N[C@@H](CC(C)C)C(=O)N[C@@H](CCCCN)C(=O)N[C@@H](CCC(N)=O)C(=O)N[C@@H](CCC(=O)O)C(=O)N[C@@H](CCCNC(=N)N)C(=O)N[C@@H](CCC(N)=O)C(=O)N[C@@H](CCCCN)C(=O)N[C@@H](CCCCN)C(=O)N[C@@H](CCC(N)=O)C(=O)N[C@@H](CCCNC(=N)N)C(=O)N[C@@H](CCC(=O)O)C(=O)N[C@@H](CCC(N)=O)C(=O)N[C@@H](C)C(=O)N[C@@H](CCC(=O)O)C(=O)N[C@@H](CCCCN)C(=O)N[C@@H](CC(N)=O)C(=O)N[C@@H](CCCCN)C(=O)N[C@@H](CCC(N)=O)C(=O)N[C@H](C(=O)N[C@@H](CC(C)C)C(=O)N[C@@H](CCC(=O)O)C(=O)N[C@@H](CCC(N)=O)C(=O)N[C@H](C(N)=O)C(C)C)[C@@H](C)CC)[C@@H](C)CC)C(=O)O) [peptide of SEQ ID NO: 212] |
| 0.83 | 0.83 | 68 | 56.6 | IVLSLD[dV]PIKLK([γGlu-C16 diacid])QILLKQERQKKQRQQAEKNKQILAQV-NH2 (N-terminus assumed; SMILES CC[C@H](C)[C@H](N)C(=O)N[C@H](C(=O)N[C@@H](CC(C)C)C(=O)N[C@@H](CO)C(=O)N[C@@H](CC(C)C)C(=O)N[C@@H](CC(=O)O)C(=O)N[C@@H](C(=O)N1CCC[C@H]1C(=O)N[C@H](C(=O)N[C@@H](CCCCN)C(=O)N[C@@H](CC(C)C)C(=O)N[C@@H](CCCCNC(=O)CC[C@H](NC(=O)CCCCCCCCCCCCCCC(=O)O)C(=O)O)C(=O)N[C@@H](CCC(N)=O)C(=O)N[C@H](C(=O)N[C@@H](CC(C)C)C(=O)N[C@@H](CC(C)C)C(=O)N[C@@H](CCCCN)C(=O)N[C@@H](CCC(N)=O)C(=O)N[C@@H](CCC(=O)O)C(=O)N[C@@H](CCCNC(=N)N)C(=O)N[C@@H](CCC(N)=O)C(=O)N[C@@H](CCCCN)C(=O)N[C@@H](CCCCN)C(=O)N[C@@H](CCC(N)=O)C(=O)N[C@@H](CCCNC(=N)N)C(=O)N[C@@H](CCC(N)=O)C(=O)N[C@@H](CCC(N)=O)C(=O)N[C@@H](C)C(=O)N[C@@H](CCC(=O)O)C(=O)N[C@@H](CCCCN)C(=O)N[C@@H](CC(N)=O)C(=O)N[C@@H](CCCCN)C(=O)N[C@@H](CCC(N)=O)C(=O)N[C@H](C(=O)N[C@@H](CC(C)C)C(=O)N[C@@H](C)C(=O)N[C@@H](CCC(N)=O)C(=O)N[C@H](C(N)=O)C(C)C)[C@@H](C)CC)[C@@H](C)CC)[C@@H](C)CC)C(C)C)C(C)C) [peptide of SEQ ID NO: 192] |

More lines, now with the values behind:

| Binder | EC50 [nM], 0% HSA (cAMP, HTRF) [1] [nM] | CRF2 EC50 (cAMP, HTRF) [2] [nM] | CRF1/CRF2 ratio (of EC50) [3] | CRF1 EC50 (cAMP, HTRF) [3] [nM] |
| --- | --- | --- | --- | --- |
| IVLSLD[dV]PIKLK([γGlu-Palmitoyl])QILLKQERQK[Aib]QRQQAEKNKQILAQV-NH2 (N-terminus assumed; SMILES CCCCCCCCCCCCCCCC(=O)N[C@@H](CCC(=O)NCCCC[C@H](NC(=O)[C@H](CC(C)C)NC(=O)[C@H](CCCCN)NC(=O)[C@@H](NC(=O)[C@@H]1CCCN1C(=O)[C@H](NC(=O)[C@H](CC(=O)O)NC(=O)[C@H](CC(C)C)NC(=O)[C@H](CO)NC(=O)[C@H](CC(C)C)NC(=O)[C@@H](NC(=O)[C@@H](N)[C@@H](C)CC)C(C)C)C(C)C)[C@@H](C)CC)C(=O)N[C@@H](CCC(N)=O)C(=O)N[C@H](C(=O)N[C@@H](CC(C)C)C(=O)N[C@@H](CC(C)C)C(=O)N[C@@H](CCCCN)C(=O)N[C@@H](CCC(N)=O)C(=O)N[C@@H](CCC(=O)O)C(=O)N[C@@H](CCCNC(=N)N)C(=O)N[C@@H](CCC(N)=O)C(=O)N[C@@H](CCCCN)C(=O)NC(C)(C)C(=O)N[C@@H](CCC(N)=O)C(=O)N[C@@H](CCCNC(=N)N)C(=O)N[C@@H](CCC(N)=O)C(=O)N[C@@H](CCC(N)=O)C(=O)N[C@@H](C)C(=O)N[C@@H](CCC(=O)O)C(=O)N[C@@H](CCCCN)C(=O)N[C@@H](CC(N)=O)C(=O)N[C@@H](CCCCN)C(=O)N[C@@H](CCC(N)=O)C(=O)N[C@H](C(=O)N[C@@H](CC(C)C)C(=O)N[C@@H](C)C(=O)N[C@@H](CCC(N)=O)C(=O)N[C@H](C(N)=O)C(C)C)[C@@H](C)CC)[C@@H](C)CC)C(=O)O) [peptide of SEQ ID NO: 208] | 0.9 | 0.9 | 2 | 1.43 |
| IVLSLD[dV]PIKLK([γGlu-Palmitoyl])QILLKQERQK[Aib]QREQAEKNKQILAQV-NH2 (N-terminus assumed; SMILES CCCCCCCCCCCCCCCC(=O)N[C@@H](CCC(=O)NCCCC[C@H](NC(=O)[C@H](CC(C)C)NC(=O)[C@H](CCCCN)NC(=O)[C@@H](NC(=O)[C@@H]1CCCN1C(=O)[C@H](NC(=O)[C@H](CC(=O)O)NC(=O)[C@H](CC(C)C)NC(=O)[C@H](CO)NC(=O)[C@H](CC(C)C)NC(=O)[C@@H](NC(=O)[C@@H](N)[C@@H](C)CC)C(C)C)C(C)C)[C@@H](C)CC)C(=O)N[C@@H](CCC(N)=O)C(=O)N[C@H](C(=O)N[C@@H](CC(C)C)C(=O)N[C@@H](CC(C)C)C(=O)N[C@@H](CCCCN)C(=O)N[C@@H](CCC(N)=O)C(=O)N[C@@H](CCC(=O)O)C(=O)N[C@@H](CCCNC(=N)N)C(=O)N[C@@H](CCC(N)=O)C(=O)N[C@@H](CCCCN)C(=O)NC(C)(C)C(=O)N[C@@H](CCC(N)=O)C(=O)N[C@@H](CCCNC(=N)N)C(=O)N[C@@H](CCC(=O)O)C(=O)N[C@@H](CCC(N)=O)C(=O)N[C@@H](C)C(=O)N[C@@H](CCC(=O)O)C(=O)N[C@@H](CCCCN)C(=O)N[C@@H](CC(N)=O)C(=O)N[C@@H](CCCCN)C(=O)N[C@@H](CCC(N)=O)C(=O)N[C@H](C(=O)N[C@@H](CC(C)C)C(=O)N[C@@H](C)C(=O)N[C@@H](CCC(N)=O)C(=O)N[C@H](C(N)=O)C(C)C)[C@@H](C)CC)[C@@H](C)CC)C(=O)O) [peptide of SEQ ID NO: 204] | 0.14 | 0.14 | 3 | 0.44 |
| IVLSLD[dV]PIGLK([γGlu-Palmitoyl])QILLKQERQKK[Aib]REQAETNKRILERV-NH2 (N-terminus assumed; SMILES CCCCCCCCCCCCCCCC(=O)N[C@@H](CCC(=O)NCCCC[C@H](NC(=O)[C@H](CC(C)C)NC(=O)CNC(=O)[C@@H](NC(=O)[C@@H]1CCCN1C(=O)[C@H](NC(=O)[C@H](CC(=O)O)NC(=O)[C@H](CC(C)C)NC(=O)[C@H](CO)NC(=O)[C@H](CC(C)C)NC(=O)[C@@H](NC(=O)[C@@H](N)[C@@H](C)CC)C(C)C)C(C)C)[C@@H](C)CC)C(=O)N[C@@H](CCC(N)=O)C(=O)N[C@H](C(=O)N[C@@H](CC(C)C)C(=O)N[C@@H](CC(C)C)C(=O)N[C@@H](CCCCN)C(=O)N[C@@H](CCC(N)=O)C(=O)N[C@@H](CCC(=O)O)C(=O)N[C@@H](CCCNC(=N)N)C(=O)N[C@@H](CCC(N)=O)C(=O)N[C@@H](CCCCN)C(=O)N[C@@H](CCCCN)C(=O)NC(C)(C)C(=O)N[C@@H](CCCNC(=N)N)C(=O)N[C@@H](CCC(=O)O)C(=O)N[C@@H](CCC(N)=O)C(=O)N[C@@H](C)C(=O)N[C@@H](CCC(=O)O)C(=O)N[C@H](C(=O)N[C@@H](CC(N)=O)C(=O)N[C@@H](CCCCN)C(=O)N[C@@H](CCCNC(=N)N)C(=O)N[C@H](C(=O)N[C@@H](CC(C)C)C(=O)N[C@@H](CCC(=O)O)C(=O)N[C@@H](CCCNC(=N)N)C(=O)N[C@H](C(N)=O)C(C)C)[C@@H](C)CC)[C@@H](C)O)[C@@H](C)CC)C(=O)O) [peptide of SEQ ID NO: 207] | 0.68 | 0.68 | 6 | 4.18 |
| IVLSLD[dV]PIKLK([γGlu-Palmitoyl])QILLKQERQKK[Aib]RQKAEKNKQILAQV-NH2 (N-terminus assumed; SMILES CCCCCCCCCCCCCCCC(=O)N[C@@H](CCC(=O)NCCCC[C@H](NC(=O)[C@H](CC(C)C)NC(=O)[C@H](CCCCN)NC(=O)[C@@H](NC(=O)[C@@H]1CCCN1C(=O)[C@H](NC(=O)[C@H](CC(=O)O)NC(=O)[C@H](CC(C)C)NC(=O)[C@H](CO)NC(=O)[C@H](CC(C)C)NC(=O)[C@@H](NC(=O)[C@@H](N)[C@@H](C)CC)C(C)C)C(C)C)[C@@H](C)CC)C(=O)N[C@@H](CCC(N)=O)C(=O)N[C@H](C(=O)N[C@@H](CC(C)C)C(=O)N[C@@H](CC(C)C)C(=O)N[C@@H](CCCCN)C(=O)N[C@@H](CCC(N)=O)C(=O)N[C@@H](CCC(=O)O)C(=O)N[C@@H](CCCNC(=N)N)C(=O)N[C@@H](CCC(N)=O)C(=O)N[C@@H](CCCCN)C(=O)N[C@@H](CCCCN)C(=O)NC(C)(C)C(=O)N[C@@H](CCCNC(=N)N)C(=O)N[C@@H](CCC(N)=O)C(=O)N[C@@H](CCCCN)C(=O)N[C@@H](C)C(=O)N[C@@H](CCC(=O)O)C(=O)N[C@@H](CCCCN)C(=O)N[C@@H](CC(N)=O)C(=O)N[C@@H](CCCCN)C(=O)N[C@@H](CCC(N)=O)C(=O)N[C@H](C(=O)N[C@@H](CC(C)C)C(=O)N[C@@H](C)C(=O)N[C@@H](CCC(N)=O)C(=O)N[C@H](C(N)=O)C(C)C)[C@@H](C)CC)[C@@H](C)CC)C(=O)O) [peptide of SEQ ID NO: 209] | 8.62 | 8.62 | 3 | 21.7 |
